Assay [1] has as its target human CD45 on the human T cell line PEER (human) (UniProt P08575). Description: FACS competition with FITC-conjugated mA6 on PEER cells; curve fit assuming divalent antibody binding.
Assay [2] addresses T1, cynomolgus monkey CD45 on the T cell line HSC-F (cynomolgus monkey, UniProt A0A2K5VQ76 26-1301).
T1 construct: whole, on cells; also called cynomolgus HSC-F cell target
T1 sequence: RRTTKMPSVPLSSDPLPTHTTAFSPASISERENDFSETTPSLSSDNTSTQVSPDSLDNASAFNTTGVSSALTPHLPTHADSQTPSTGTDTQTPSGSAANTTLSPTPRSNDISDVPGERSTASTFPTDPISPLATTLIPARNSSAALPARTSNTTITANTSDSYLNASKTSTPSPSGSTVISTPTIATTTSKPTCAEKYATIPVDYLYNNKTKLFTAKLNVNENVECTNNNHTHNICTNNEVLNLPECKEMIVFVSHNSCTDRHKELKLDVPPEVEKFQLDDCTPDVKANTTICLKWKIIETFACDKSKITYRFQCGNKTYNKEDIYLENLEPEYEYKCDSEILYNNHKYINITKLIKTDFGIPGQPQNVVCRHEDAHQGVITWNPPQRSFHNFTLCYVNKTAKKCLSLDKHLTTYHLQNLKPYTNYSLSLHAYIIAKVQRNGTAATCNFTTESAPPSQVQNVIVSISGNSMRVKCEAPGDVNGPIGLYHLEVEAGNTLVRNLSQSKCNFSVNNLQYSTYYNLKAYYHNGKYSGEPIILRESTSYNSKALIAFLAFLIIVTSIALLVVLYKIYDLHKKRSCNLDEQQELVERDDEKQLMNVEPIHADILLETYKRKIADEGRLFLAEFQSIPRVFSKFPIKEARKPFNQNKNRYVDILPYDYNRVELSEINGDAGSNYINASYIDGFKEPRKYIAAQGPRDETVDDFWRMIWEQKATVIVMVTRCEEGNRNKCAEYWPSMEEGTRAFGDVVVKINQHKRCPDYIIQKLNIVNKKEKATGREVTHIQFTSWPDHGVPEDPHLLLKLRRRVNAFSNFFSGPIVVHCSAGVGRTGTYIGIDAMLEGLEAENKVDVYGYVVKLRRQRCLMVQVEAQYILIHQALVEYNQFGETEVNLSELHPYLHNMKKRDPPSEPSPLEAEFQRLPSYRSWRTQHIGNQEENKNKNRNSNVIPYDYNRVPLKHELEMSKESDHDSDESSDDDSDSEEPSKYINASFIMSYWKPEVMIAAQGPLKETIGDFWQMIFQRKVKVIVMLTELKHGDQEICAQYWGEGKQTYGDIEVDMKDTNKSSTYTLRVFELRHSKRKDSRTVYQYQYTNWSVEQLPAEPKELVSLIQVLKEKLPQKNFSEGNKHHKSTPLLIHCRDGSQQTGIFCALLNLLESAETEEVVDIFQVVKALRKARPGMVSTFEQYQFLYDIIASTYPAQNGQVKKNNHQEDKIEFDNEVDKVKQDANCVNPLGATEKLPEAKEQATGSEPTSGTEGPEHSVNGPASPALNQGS
Description: FACS competition with FITC-conjugated mA6 on HSC-F cells; curve fit assuming divalent antibody binding.

Kd data for one molecule are collected here from EP1664122B1 (Novartis AG, dated 2010).

B1: humanised antibody VHE-N73D/humV1 (antibody, V domains shown)
VH: EVQLVESGAEVKKPGASVKVSCKASGYTFTNYIIHWVKQEPGQGLEWIGYFNPYNHGTKYNEKFKGRATLTADKSISTAYMELSSLRSEDTAVYYCARSGPYAWFDTWGQGTTVTVSS
VL: DILLTQSPATLSLSPGERATLSCRASQNIGTSIQWYQQKPGQAPRLLIRSSSESISGIPSRFSGSGSGTDFTLTISSLEPEDFAVYYCQQSNTWPFTFGQGTKLEIK
notes: Constant parts are human gamma-1 and human kappa; expressed in Sp2/0 cells; also called VHEN73D/VL1; VHEN73D/VLh
Turning to B1, the results for the dissociation constant Kd in assay [1] and in assay [2] were 2.44 nM and 1.67 nM, respectively.

For orientation: Kd means the concentration at which binding is half-saturated.
